Drawing on patent US20160339053A1, this text covers adhesion of WT preactivated CD4+ T cells to ICAM-1-coated plates (percent of input cells) and adhesion of WT preactivated CD4+ T cells to ICAM-1-coated plates, fold over basal after CXCL12, CCL21 or anti-CD3 for one substance.

The target of this test is recombinant mouse ICAM-1 (mouse) (UniProt P13597). Briefly: cell-based or functional assay.
Sequence of UniProt P13597 (P13597 28-485 limits assumed): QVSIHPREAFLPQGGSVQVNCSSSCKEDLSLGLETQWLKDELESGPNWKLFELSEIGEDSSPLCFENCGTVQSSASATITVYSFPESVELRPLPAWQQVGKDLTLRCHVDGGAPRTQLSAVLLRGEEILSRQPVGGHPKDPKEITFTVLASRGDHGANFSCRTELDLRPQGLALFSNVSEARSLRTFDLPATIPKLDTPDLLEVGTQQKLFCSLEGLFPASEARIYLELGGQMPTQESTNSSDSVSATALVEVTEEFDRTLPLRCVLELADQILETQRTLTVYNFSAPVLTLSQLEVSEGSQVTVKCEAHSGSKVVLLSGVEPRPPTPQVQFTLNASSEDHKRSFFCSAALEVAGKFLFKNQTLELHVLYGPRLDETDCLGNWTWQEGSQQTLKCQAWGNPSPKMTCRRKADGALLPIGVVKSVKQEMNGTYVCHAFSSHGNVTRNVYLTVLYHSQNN

For the substance “LFA-1 on mouse preactivated CD4+ T cells (from UniProt P24063 24-1162; P11835 24-771) (receptor)”, the adhesion of WT preactivated CD4+ T cells to ICAM-1-coated plates (percent of input cells) turned out to be 10% and the adhesion of WT preactivated CD4+ T cells to ICAM-1-coated plates, fold over basal after CXCL12, CCL21 or anti-CD3 is 2 to 5 fold.
